Experimental data reported in US20250215089A1 (HARBOUR BIOMED SHANGHAI, published 2025).
Where a chain is given by its changes, count along the chain named. In names and notes the source's numbering stands. Several values for one entry are separate records, joined by “and”; a condition that tells them apart may be missing. Equal entries are not always repeated. Where two headings read alike, the source gives them in different places. Values belong to the binder of their own block, whether it stands above or below them.

Experiments:
cynomolgus monkey PD-L1 = target: T1, cynomolgus monkey PD-L1 (cynomolgus monkey); assay: FACS, CHO-K1/cyPD-L1 cells
T1 construct: whole, on cells; also called cyPD-L1
Procedure, shortened: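 Binding of antibodies to PD-L1-expressing cells (1×10⁶ cells/mL in PBS/2% BSA), tested in 4-fold dilution series. Incubation 2 h at 4° C in the dark, then washes. Fluorescence read by flow cytometry.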

human CD40 [1] = target: T2, human CD40 (human, UniProt P25942 21-277); assay: FACS, Raji cells
T2 construct: whole, on cells; also called hCD40; TNFRSF5
T2 sequence (P25942 21-277): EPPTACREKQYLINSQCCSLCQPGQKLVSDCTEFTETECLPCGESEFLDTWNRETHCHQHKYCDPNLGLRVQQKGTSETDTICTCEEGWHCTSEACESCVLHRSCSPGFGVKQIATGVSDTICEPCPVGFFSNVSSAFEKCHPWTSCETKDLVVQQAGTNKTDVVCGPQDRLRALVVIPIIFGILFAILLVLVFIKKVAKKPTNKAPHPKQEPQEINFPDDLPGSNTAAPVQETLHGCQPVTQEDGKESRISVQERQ
Procedure, shortened: (§1)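 Cells carrying bound test antibody were kept 1 h at 4° C in the dark, washed in cold PBS, then stained 30 min at 4° C with Alexa Fluor 488 goat anti-human IgG (H+L) (1:1000). Fluorescence signal was read by flow cytometry.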

cynomolgus monkey CD40 = target: T3, cynomolgus monkey CD40 (cynomolgus monkey); assay: FACS, CHO-K1/cyCD40 cells
T3 construct: whole, on cells; also called cyCD40
Procedure, shortened: as §1

human CD40 [2] = target: T2, human CD40; assay: FACS, CHO-K1/hCD40 cells
Procedure, shortened: as §1

human CD40 [3] = target: T2, human CD40; assay: FACS, Raji cells; remark: listed apart in the source
Procedure: The cells were incubated at 4° C. for 1 hours in the dark. After the incubation, the cells were rinsed twice by adding pre-chilled PBS at 100 μL/well, and centrifuged at 500 g at 4° C. for 5 minutes, and the supernatant was discarded. Then, a fluorescent secondary antibody (goat anti-human IgG (H+L) secondary antibody, Alexa Fluor® 488 conjugate, Invitrogen, #A11013, 1:1000 dilution) was added at 100 μL/well, and the cells were incubated at 4° C. for 30 minutes in the dark. The cells were washed twice with pre-chilled PBS at 200 μL/well, and centrifuged at 500 g at 4° C. for 5 minutes, and the supernatant was discarded. Finally, the cells were resuspended in pre-chilled PBS at 200 μL/well. The fluorescence signal values were read using a BD FACS CANTOII flow cytometer or ACEA NovoCyte flow cytometer, and the data were processed and analyzed using FlowJo v10 software (FlowJo, LLC).
(§2) Data processing and graphical analysis were performed using GraphPad Prism 8 software. The binding curve of the antibody to the target cell and parameters, such as EC₅₀ value were obtained by four-parameter nonlinear fitting.

human CD40 [4] = target: T2, human CD40; assay: FACS, MDA-MB-231 cells
human CD40 [5] = target: T2, human CD40; assay: cell-based or functional assay
human CD40 [6] = target: T2, human CD40; assay: cell-based or functional assay; remark: listed apart in the source
human PD-L1 [7] = target: T4, human PD-L1 (human, UniProt Q9NZQ7 19-290); assay: cell-based or functional assay
T4 sequence (Q9NZQ7 19-290): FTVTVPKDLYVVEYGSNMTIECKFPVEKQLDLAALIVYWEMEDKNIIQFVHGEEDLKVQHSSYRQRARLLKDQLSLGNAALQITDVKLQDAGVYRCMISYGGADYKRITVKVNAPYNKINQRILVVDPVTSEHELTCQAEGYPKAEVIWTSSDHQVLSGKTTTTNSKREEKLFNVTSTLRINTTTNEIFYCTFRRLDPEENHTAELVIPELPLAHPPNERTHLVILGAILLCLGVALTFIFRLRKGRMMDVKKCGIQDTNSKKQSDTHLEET

human PD-L1 [8] = target: T4, human PD-L1; assay: FACS, CHO-K1/hPD-L1 cells
Procedure: Specifically, the cells expressing PD-L1 were digested and resuspended in PBS buffer containing 2% BSA. The cells were adjusted to a cell density of 1×10⁶ cells/mL, respectively. The cells were seeded in a 96-well V-bottom plate (Corning, #3894) at 100 μL/well, and the antibody to be tested at 2×final concentration with 4-fold concentration gradient dilution was then added at 100 μL/well. The cells were incubated at 4° C. for 2 hours in the dark. After the incubation, the cells were rinsed twice by adding pre-chilled PBS containing 2% BSA at 100 μL/well, and centrifuged at 500 g at 4° C. for 5 minutes, and the supernatant was discarded. […] The cells were washed twice by adding pre-chilled PBS containing 2% BSA at 100 µL/well, and centrifuged at 500 g at 4° C. for 5 minutes, and the supernatant was discarded. Finally, the cells were resuspended in pre-chilled PBS buffer containing 2% BSA at 200 μL/well. The fluorescence signal values were read using a BD FACS CANTOII flow cytometer or ACEA NovoCyte flow cytometer, and the data were processed and analyzed using FlowJo v10 software (FlowJo, LLC).
as §2

human CD40 [9] = target: T2, human CD40; assay: cell-based or functional assay; remark: listed apart in the source

Maximum MFI (cynomolgus monkey PD-L1): 94 MFI
EC50 (human CD40 [1]): 3020 pM
Maximum MFI (human CD40 [1]): 5170 MFI
EC50 (cynomolgus monkey CD40): 4740 pM
Maximum MFI (cynomolgus monkey CD40): 53400 MFI
EC50 (human CD40 [2]): 2580 pM
Maximum MFI (human CD40 [2]): 13900 MFI
EC50 (human CD40 [3]): 484 pM
Maximum MFI (human CD40 [3]): 2450 MFI
EC50 (human CD40 [4]): 936 pM
EC50, HEK293-hCD40-NFκB reporter, crosslinked (CHO-K1/hCD32B) (human CD40 [5]): 41.3 pM
EC50, HEK293-hCD40-NFκB reporter, uncrosslinked (CHO-K1) (human CD40 [5]): 163 pM
Fold (EC50 in the absence of crosslinking/EC50 in the presence of crosslinking) (human CD40 [5]): 3.94 fold
EC50, HEK293-hCD40-NFκB reporter, + CHO-K1 (human CD40 [6]): 183 pM and 241 pM
EC50, HEK293-hCD40-NFκB reporter, + CHO-K1/hPD-L1 (human CD40 [6]): 156 pM and 205 pM
B1: Selicrelumab (antibody, human IgG2, kappa, V domains shown)
VH: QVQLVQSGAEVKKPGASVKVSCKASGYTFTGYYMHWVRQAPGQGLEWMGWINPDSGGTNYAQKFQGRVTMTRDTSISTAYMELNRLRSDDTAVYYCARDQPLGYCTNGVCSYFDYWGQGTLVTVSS
VL: DIQMTQSPSSVSASVGDRVTITCRASQGIYSWLAWYQQKPGKAPNLLIYTASTLQSGVPSRFSGSGSGTDFTLTISSLQPEDFATYYCQQANIFPLTFGGGTKVEIKR
notes: Positive control anti-CD40 antibody; also called PR001028

EC50, Jurkat-NFAT-hPD1 reporter (human PD-L1 [7]): 150 pM
Maximum (RLU), Jurkat-NFAT-hPD1 reporter (human PD-L1 [7]): 13400 RLU
EC50 (human PD-L1 [8]): 1010 pM
Maximum MFI (human PD-L1 [8]): 410000 MFI
B4: PR006247 (antibody, human IgG1, V domains shown)
VH: QVQLVESGGGVVQPGMSLRLSCAASGFDFSSYGMYWVRQAPGKGQEWVASIRYTGTEKHYADSVKGRFTISRDNSKNTLYLEMNSLRVEDTAVYYCAKNRALFGVIPDASDIRGQGTMVTVSS
notes: HCAb; human IgG1 Fc; no light chain

EC50, Jurkat-NFAT-hPD1 reporter (human PD-L1 [7]): 121 pM
Maximum (RLU), Jurkat-NFAT-hPD1 reporter (human PD-L1 [7]): 14100 RLU
EC50 (human PD-L1 [8]): 606 pM
Maximum MFI (human PD-L1 [8]): 404000 MFI
B5: PR006248 (antibody, human IgG1, V domains shown)
VH: B4 VH with A109D
notes: as for B4

EC50 (human CD40 [3]): 252 pM
Maximum MFI (human CD40 [3]): 9200 MFI
EC50, HEK293-hCD40-NFκB reporter, crosslinked (human CD40 [9]): 158 pM
EC50, HEK293-hCD40-NFκB reporter, uncrosslinked (human CD40 [9]): 479 pM
Fold (EC50 in the absence of crosslinking/EC50 in the presence of crosslinking) (human CD40 [9]): 3.03 fold
Maximum fold, HEK293-hCD40-NFκB reporter, crosslinked (human CD40 [9]): 4.77 fold
Maximum fold, HEK293-hCD40-NFκB reporter, uncrosslinked (human CD40 [9]): 4.61 fold
B10: PR006497 (antibody, human IgG1, kappa, V domains shown)
VH: QVQLVQSGAEVKKPGASVKVSCKASGYTFAGYYMYWVRQAPGQGLEWMGWINPDSGAPTYAQKFQGRVTMTRDTSISTAYMELSRLRSDDTAVYYCAREKIYYGSGNYYPSFDYWGQGTLVTVSS
VL: DIQLTQSPSFLSASVGDRVTITCRASQGISSYLAWYQQKPGKAPKLLIYAASTLQSGVPSRFSGSGSGTEFTLTISSLQPEDFATYYCQQLYSYPWTFGQGTKVEIKR
notes: Variant of PR003379, L: N92Y; human IgG1 L234A, L235A, G237A

More lines, now with the values behind:

B2: PR000960 (antibody, human IgG1, V domains shown)
VH: B4 VH with D28N, S31N, S50I, R52W, T54D, E57K, L102I, I106V
notes: Fully human heavy-chain-only antibody (HCAb): VH fused to human IgG1 Fc; no light chain
EC50, Jurkat-NFAT-hPD1 reporter (human PD-L1 [7]): 310 pM
Maximum (RLU), Jurkat-NFAT-hPD1 reporter (human PD-L1 [7]): 18400 RLU
EC50 (human PD-L1 [8]): 790 pM
Maximum MFI (human PD-L1 [8]): 23700 MFI

B3: PR005878 (antibody, human IgG1, V domains shown)
VH: B4 VH with D28T, A109D
notes: as for B4
EC50, Jurkat-NFAT-hPD1 reporter (human PD-L1 [7]): 166 pM
Maximum (RLU), Jurkat-NFAT-hPD1 reporter (human PD-L1 [7]): 13400 RLU
EC50 (human PD-L1 [8]): 1080 pM
Maximum MFI (human PD-L1 [8]): 419000 MFI

B6: PR002082 (antibody, human IgG1, V domains shown)
VH: B4 VH with D28T, S50I, R52W, T54D, E57K, L102I, I106V
notes: HCAb; PTM variant of PR000960 (N28T, N31S); human IgG1 Fc; no light chain
EC50, Jurkat-NFAT-hPD1 reporter (human PD-L1 [7]): 217 pM
Maximum (RLU), Jurkat-NFAT-hPD1 reporter (human PD-L1 [7]): 12100 RLU
EC50 (human PD-L1 [8]): 860 pM and 1310 pM

B7: PR006246 (antibody, human IgG1, V domains shown)
VH: B4 VH with L102I, A109D
notes: as for B4
EC50, Jurkat-NFAT-hPD1 reporter (human PD-L1 [7]): 132 pM
Maximum (RLU), Jurkat-NFAT-hPD1 reporter (human PD-L1 [7]): 13700 RLU
EC50 (human PD-L1 [8]): 764 pM
Maximum MFI (human PD-L1 [8]): 396000 MFI

B8: PR006245 (antibody, human IgG1, V domains shown)
VH: B4 VH with L102I, I106V
notes: as for B4
EC50, Jurkat-NFAT-hPD1 reporter (human PD-L1 [7]): 151 pM
Maximum (RLU), Jurkat-NFAT-hPD1 reporter (human PD-L1 [7]): 13800 RLU
EC50 (human PD-L1 [8]): 964 pM
Maximum MFI (human PD-L1 [8]): 405000 MFI

B9: PR003379 (antibody, human IgG2, kappa, V domains shown)
VH: B10 VH
VL: B10 VL with Y92N
notes: also called clone 18C4A12-1B1
EC50 (human CD40 [3]): 69.9 pM
Maximum MFI (human CD40 [3]): 3700 MFI
EC50, HEK293-hCD40-NFκB reporter, crosslinked (CHO-K1/hCD32B) (human CD40 [5]): 178 pM
EC50, HEK293-hCD40-NFκB reporter, uncrosslinked (CHO-K1) (human CD40 [5]): 369 pM
Fold (EC50 in the absence of crosslinking/EC50 in the presence of crosslinking) (human CD40 [5]): 2.07 fold
